Measured values taken from PMC11452484.

Assays:
[1] = biological target: short pAgo (SPARSA Ago subunit);Sir2-APAZ N142A (Geobacter sulfurreducens;Geobacter …, UniProt Q74DF5;Q74DF6 1-473;1-587, |N142A); experiment: cryo-EM structure
[2] = biological target: short pAgo (SPARSA Ago subunit);Sir2-APAZ (Geobacter sulfurreducens;Geobacter …, UniProt Q74DF5;Q74DF6 1-473;1-587, |); experiment: SEC

B1: gRNA-target ssDNA (DNA:RNA)
RNA: AUUCCUGUUAGAGCUGUUAAC
DNA: AAGTTAACAGCTCTAACAGGAATAA
modifications: 5'-phosphate on guide RNA
binding result [1]: binds | binding result [2]: binds
